Tested on: peptide library, one residue held at a place counted from the S/T acceptor
Experiment: relative phosphorylation of the sub-library (ratio to the mean residue at this position); human; higher = residue favoured
Procedure, shortened: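 Spots on streptavidin membranes were phosphorimaged and quantified by densitometry to measure phosphorylation of biotinylated degenerate peptide sub-libraries by purified recombinant kinases, human or orthologue constructs. The reactions ran in 384-well plates for 90 min under kinase-specific conditions, with peptides at 50 μM and 50 μM ATP spiked with γ-32P-ATP. Relative sub-library phosphorylation is the ratio to the mean residue at that position.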

Sequence of CDKL1, construct: aa2-304 (Q00532 2-304, looked up): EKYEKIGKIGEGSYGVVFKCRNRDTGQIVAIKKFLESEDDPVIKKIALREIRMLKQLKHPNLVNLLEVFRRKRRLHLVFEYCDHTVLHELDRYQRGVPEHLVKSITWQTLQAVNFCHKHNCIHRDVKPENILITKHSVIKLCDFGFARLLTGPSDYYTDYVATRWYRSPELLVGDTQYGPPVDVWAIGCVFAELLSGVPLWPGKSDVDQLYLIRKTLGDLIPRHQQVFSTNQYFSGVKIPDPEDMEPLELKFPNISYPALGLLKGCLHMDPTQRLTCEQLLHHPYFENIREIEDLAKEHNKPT

STK39, construct: Full length (from UniProt Q9UEW8)
relative phosphorylation
Conditions | at +1 | at +2 | at +3 | at +4 | at -1 | at -2 | at -3 | at -4 | at -5
A fixed | 0.382 | 0.623 | 0.889 | 0.918 | 0.783 | 0.729 | 0.996 | 1 | 1.13
D fixed | 0.233 | 0.398 | 0.795 | 0.812 | 1.29 | 1.04 | 1.1 | 1.47 | 1.27
E fixed | 0.266 | 0.234 | 0.96 | 0.651 | 1.05 | 0.826 | 0.895 | 1.36 | 1.07
F fixed | 1.17 | 0.908 | 0.901 | 0.899 | 0.908 | 1.05 | 0.783 | 0.88 | 0.983
G fixed | 0.24 | 0.824 | 1.06 | 1.27 | 0.606 | 0.888 | 0.933 | 1.2 | 1.07
H fixed | 1.01 | 4.16 | 1.32 | 0.999 | 1.62 | 1.44 | 1.47 | 1.07 | 0.932
I fixed | 2.61 | 0.696 | 0.654 | 0.739 | 0.638 | 0.409 | 0.615 | 0.672 | 0.679
K fixed | 0.432 | 0.55 | 0.862 | 1.15 | 0.818 | 0.414 | 0.61 | 0.771 | 0.927
L fixed | 1.56 | 0.65 | 1.01 | 0.921 | 1.32 | 0.721 | 0.646 | 0.76 | 0.619
M fixed | 1.33 | 0.873 | 1.05 | 0.952 | 1.18 | 0.744 | 0.763 | 0.832 | 0.866
N fixed | 0.453 | 1.08 | 1.27 | 1.18 | 1.34 | 1.29 | 1.59 | 1.02 | 0.95
P fixed | 0.175 | 0.523 | 0.906 | 1.14 | 0.49 | 0.539 | 0.937 | 1.05 | 1.24
Q fixed | 0.661 | 1.03 | 1.19 | 1.19 | 0.963 | 1.91 | 1.09 | 0.959 | 0.892
R fixed | 0.517 | 0.824 | 1.06 | 1.18 | 1.04 | 0.529 | 0.677 | 0.831 | 0.96
V fixed | 1.84 | 1.04 | 0.72 | 0.694 | 0.584 | 0.457 | 0.623 | 0.769 | 0.911
W fixed | 2.89 | 0.987 | 1.16 | 1.37 | 1.06 | 1.17 | 1.03 | 1.18 | 1.17
Y fixed | 1.23 | 1.61 | 1.19 | 0.933 | 1.3 | 2.84 | 2.24 | 1.17 | 1.34
pThr fixed | 0.677 | 0.474 | 0.767 | 0.493 | 0.867 | 0.793 | 1.11 | 1.19 | 1.25
pTyr fixed | 0.614 | 0.352 | 1 | 0.586 | 1.77 | 1.16 | 1.02 | 1.25 | 1.45

CDKL1, construct: aa2-304 (from UniProt Q00532)
relative phosphorylation
Conditions | at +1 | at +2 | at +3 | at +4 | at -1 | at -2 | at -3 | at -4 | at -5
A fixed | 1.42 | 0.825 | 0.9 | 0.849 | 0.875 | 0.874 | 0.724 | 0.985 | 0.964
D fixed | 0.679 | 0.924 | 0.793 | 0.858 | 0.693 | 0.715 | 0.534 | 0.874 | 0.771
E fixed | 0.721 | 0.803 | 0.747 | 0.766 | 0.67 | 0.739 | 0.538 | 0.917 | 0.809
F fixed | 0.888 | 0.829 | 0.924 | 0.916 | 0.835 | 0.724 | 0.531 | 0.934 | 1.21
G fixed | 1.15 | 0.764 | 0.865 | 1.04 | 1.56 | 1.01 | 0.617 | 1.01 | 1
H fixed | 1.02 | 1.22 | 1.13 | 1.07 | 1.02 | 0.727 | 0.593 | 0.926 | 0.987
I fixed | 0.732 | 0.881 | 0.865 | 0.856 | 0.644 | 0.96 | 0.537 | 0.883 | 0.961
K fixed | 1.25 | 1.52 | 1.43 | 1.31 | 1.61 | 0.898 | 0.852 | 1.22 | 1.08
L fixed | 0.755 | 0.898 | 0.928 | 0.939 | 0.988 | 0.909 | 0.549 | 0.909 | 0.976
M fixed | 0.862 | 0.841 | 0.9 | 0.953 | 1.19 | 0.774 | 0.549 | 0.937 | 0.96
N fixed | 0.871 | 1.05 | 1 | 1.08 | 1.01 | 0.778 | 0.585 | 0.925 | 0.919
P fixed | 1.92 | 0.774 | 0.978 | 0.98 | 1.02 | 3.55 | 0.704 | 1.05 | 0.918
Q fixed | 0.894 | 1.03 | 1.05 | 1.07 | 1.05 | 0.856 | 0.707 | 1.08 | 0.972
R fixed | 1.33 | 2.02 | 1.63 | 1.47 | 1.44 | 1.21 | 7.35 | 1.54 | 1.63
V fixed | 0.744 | 0.888 | 0.944 | 0.83 | 0.736 | 0.873 | 0.54 | 0.967 | 0.896
W fixed | 0.819 | 0.808 | 0.899 | 1.09 | 0.768 | 0.71 | 0.539 | 0.944 | 0.889
Y fixed | 0.941 | 0.931 | 1.02 | 0.907 | 0.884 | 0.698 | 0.55 | 0.899 | 1.06
pThr fixed | 0.811 | 0.892 | 0.844 | 0.824 | 0.778 | 0.799 | 0.576 | 0.837 | 0.737
pTyr fixed | 0.652 | 0.663 | 0.733 | 0.692 | 0.717 | 0.75 | 0.786 | 0.876 | 0.726

Reference: the supplement of paper PMC9876800
